Test results from patent publication US10774129B2, “Complexes of types of MHC class II that bind to collagen type II peptides and their use on diagnosis and treatment” (FRAUNHOFER-GESELLSCHAFT ZUR FÖRDERUNG DER ANGEWANDTEN …, priority 2011, dated 2020).
Square brackets hold non-standard residues; d marks the D form. Ends that are not written are not given here. Cit = NC(=O)NCCC[C@H](N)C(=O)O

Key:
[1] = test system: MHC class II of the HLA DRB1 0408 genotype; assay: in vitro binding assay to recombinant MHC class II protein; set-up: species or system human; key: *0101: the listing of the allele in the column for the allele indicates binding; *0401: “0401” in the “Binds to 0401” column indicates binding of the peptide to MHC class II of the HLA DRB1 0401 genotype; *0404: the listing of the allele in the column for the allele indicates binding; *0405: the listing of the allele in the column for the allele indicates binding; *0408: the listing of the allele in the column for the allele indicates binding; *1001: the listing of the allele in the column for the allele indicates binding; “no” or no data indicates no binding to a protein of that genotype
Excerpt: (§1) Binding of the peptides to recombinant MHC class II protein of various alleles has been confirmed in an in vitro binding assay and the results are shown in Tables 1, 2 and 3. In table 1, 2 and 3, the listing of the allele in the column for the allele indicates binding. Thus “0401” in the “Binds to 0401” column indicates binding of the peptide to MHC class II of the HLA DRB1 0401 genotype. “no” or no data indicates no binding to a protein of that genotype. Empty boxes indicate no binding or that binding has not been determined. In the tables it is also indicated if the peptide has a citrulline residue, where “yes” indicates the presence of a citrulline residue and “no” indicates the absence of a citrulline residue.

[2] = test system: MHC class II of the HLA DRB1 1001 genotype; assay: as above; set-up: species or system human; key to Binds to 1001: *0101: the listing of the allele in the column for the allele indicates binding; *0401: “0401” in the “Binds to 0401” column indicates binding of the peptide to MHC class II of the HLA DRB1 0401 genotype; *0404: the listing of the allele in the column for the allele indicates binding; *0405: the listing of the allele in the column for the allele indicates binding; *0408: the listing of the allele in the column for the allele indicates binding; *1001: the listing of the allele in the column for the allele indicates binding; “no” or no data indicates no binding to a protein of that genotype; conditions: recombinant MHC class II, HLA DRB1 1001
Excerpt: as §1

[3] = molecular target: MHC class II of the HLA DRB1 0401 genotype (Homo sapiens, UniProt P01903+P01911, A100K/A169T/F76Y/I96L/K127E/L162R/M171V/N62H/P40V/Q125Y/R42H/S133A/S149N/S66Y/V115G/V209L/W38E); assay: as above; set-up: key to Binds to 0401: *0101: the listing of the allele in the column for the allele indicates binding; *0401: “0401” in the “Binds to 0401” column indicates binding of the peptide to MHC class II of the HLA DRB1 0401 genotype; *0404: the listing of the allele in the column for the allele indicates binding; *0405: the listing of the allele in the column for the allele indicates binding; *0408: the listing of the allele in the column for the allele indicates binding; *1001: the listing of the allele in the column for the allele indicates binding; “no” or no data indicates no binding to a protein of that genotype; conditions: for Binds to 0401: recombinant MHC class II, HLA DRB1 0401
Excerpt: as §1
Thus for these peptides no binding to HLA-DR0401 was observed when citrulline was exchanged with the original amino acid arginine (Table 4). No binding of the citrullinated peptides was seen to HLA-DR 03 or 02 variants.

[4] = molecular target: MHC class II of the HLA DRB1 0405 genotype (Homo sapiens, UniProt P01903+P01911, A100R/A169T/D86S/F76Y/I96L/K127E/L162R/M171V/N62H/P40V/Q125Y/R42H/S133A/S149N/S66Y/V115G/V209L/W38E); assay: as above; set-up: key: *0101: the listing of the allele in the column for the allele indicates binding; *0401: “0401” in the “Binds to 0401” column indicates binding of the peptide to MHC class II of the HLA DRB1 0401 genotype; *0404: the listing of the allele in the column for the allele indicates binding; *0405: the listing of the allele in the column for the allele indicates binding; *0408: the listing of the allele in the column for the allele indicates binding; *1001: the listing of the allele in the column for the allele indicates binding; “no” or no data indicates no binding to a protein of that genotype
Excerpt: as §1

[5] = molecular target: MHC class II of the HLA DRB1 0404 genotype (Homo sapiens, UniProt P01903+P01911, A100R/A169T/F76Y/I96L/K127E/L162R/M171V/N62H/P40V/Q125Y/R42H/S133A/S149N/S66Y/V209L/W38E); assay: as above; set-up: key: *0101: the listing of the allele in the column for the allele indicates binding; *0401: “0401” in the “Binds to 0401” column indicates binding of the peptide to MHC class II of the HLA DRB1 0401 genotype; *0404: the listing of the allele in the column for the allele indicates binding; *0405: the listing of the allele in the column for the allele indicates binding; *0408: the listing of the allele in the column for the allele indicates binding; *1001: the listing of the allele in the column for the allele indicates binding; “no” or no data indicates no binding to a protein of that genotype
Excerpt: as §1

[6] = molecular target: MHC class II of the HLA DRB1 0101 genotype (Homo sapiens, UniProt P01903+P01911, A100R/D57E/F55L/F60I/F76Y/I96L/L162R/M171V/P40L/Q125E/R42F/V115G/Y59C); assay: as above; set-up: key: *0101: the listing of the allele in the column for the allele indicates binding; *0401: “0401” in the “Binds to 0401” column indicates binding of the peptide to MHC class II of the HLA DRB1 0401 genotype; *0404: the listing of the allele in the column for the allele indicates binding; *0405: the listing of the allele in the column for the allele indicates binding; *0408: the listing of the allele in the column for the allele indicates binding; *1001: the listing of the allele in the column for the allele indicates binding; “no” or no data indicates no binding to a protein of that genotype
Excerpt: as §1

[7] = test system: PBMCs (CD4+ T cells) from rheumatoid arthritis patients with HLA genotype HLA DRB1-0401; assay: T-cell activation in PBMCs, intracellular cytokine staining and CD154 by flow cytometry; assay type: cell-based, human; conditions: 5 to 50 ug/ml, 5-day incubation

Substance | Binds to 0408 [1] | Binds to 1001 [2] | Binds to 0401 [3] | Binds to 0405 [4] | Binds to 0404 [5] | Binds to 0101 [6] | Binds MHC in vitro ([3]; HLA tested *0401) | double staining for CD154 and at least one cytokine (IFNgamma, IL-17A, TNF alpha), activation of T-cells ([7]; HLA DRB1-0401 patients) | Activation of T-cells ([7]; HLA tested *0401, yes = all patients positive for at least one cytokine)
a-enolase 34: human alpha-enolase peptide, not citrullinated (QEFMILPVGAANFRE; listed as Homo sapiens) | no | no | *0401 | *0405 | *0404 | *0101 | – | – | –
a-enolase 80: human alpha-enolase peptide, not citrullinated (GAPCRSERLAKYNQL; listed as Homo sapiens) | *0408 | no | no | *0405 | no | *0101 | – | – | –
a-enolase 12: human alpha-enolase peptide, not citrullinated (RYMGKGVSKAVEHIN; listed as Homo sapiens) | *0408 | *1001 | no | *0405 | no | *0101 | – | – | –
a-enolase 13: human alpha-enolase peptide, not citrullinated (GVSKAVEHINKTIAP; listed as Homo sapiens) | no | no | no | no | *0404 | *0101 | – | – | –
a-enolase 69: human alpha-enolase peptide, not citrullinated (LLKVNQIGSVTESLQ; listed as Homo sapiens) | no | no | no | *0405 | no | no | – | – | –
a-enolase 81: human alpha-enolase peptide, not citrullinated (SERLAKYNQLLRIEE; listed as Homo sapiens) | no | no | no | no | *0404 | *0101 | – | – | –

Continued, in another order:

Binds to 0408 [1] | Binds to 1001 [2] | Binds to 0401 [3] | Binds to 0405 [4] | Binds to 0404 [5] | Binds to 0101 [6] | Binds MHC in vitro ([3]; HLA tested *0401) | Substance | double staining for CD154 and at least one cytokine (IFNgamma, IL-17A, TNF alpha), activation of T-cells ([7]; HLA DRB1-0401 patients) | Activation of T-cells ([7]; HLA tested *0401, yes = all patients positive for at least one cytokine)
*0408 | no | no | no | *0404 | *0101 | – | a-enolase 14: human alpha-enolase peptide, not citrullinated (VEHINKTIAPALVSK; listed as Homo sapiens) | – | –
no | *1001 | no | *0405 | *0404 | *0101 | – | a-enolase 1: human alpha-enolase peptide, not citrullinated (MSILKIHAREIFDSR; listed as Homo sapiens) | – | –
no | no | *0401 | *0405 | *0404 | *0101 | yes | a-enolase 313: citrullinated human alpha-enolase peptide (K[Cit]IAKAVNEKSCNCL; cysteine pairing not given here; listed as Homo sapiens) | double stained positive for both CD154 and at least one cytokine | yes
*0408 | no | *0401 | *0405 | *0404 | *0101 | – | a-enolase 26: human alpha-enolase peptide, not citrullinated (KGVPLYRHIADLAGN; listed as Homo sapiens) | – | –
*0408 | no | *0401 | *0405 | no | no | – | a-enolase 299: citrullinated human alpha-enolase peptide (KGVPLY[Cit]HIADLAGN; listed as Homo sapiens) | – | –
*0408 | no | *0401 | *0405 | *0404 | *0101 | – | a-enolase 45: human alpha-enolase peptide, not citrullinated (KEGLELLKTAIGKAG; listed as Homo sapiens) | – | –
no | no | no | *0405 | no | *0101 | – | a-enolase 36: human alpha-enolase peptide, not citrullinated (ANFREAMRIGAEVYH; listed as Homo sapiens) | – | –
*0408 | no | no | no | *0404 | *0101 | – | a-enolase 15: human alpha-enolase peptide, not citrullinated (KTIAPALVSKKLNVT; listed as Homo sapiens) | – | –
*0408 | no | *0401 | *0405 | no | *0101 | – | a-enolase 38: human alpha-enolase peptide, not citrullinated (AEVYHNLKNVIKEKY; listed as Homo sapiens) | – | –
